The text below walks through data of the supplement of paper PMC5998384.

Data set [1] has as its system HeLa Kyoto. As to the kind of experiment: solubility change mitosis vs G1/S (difference of NP-40 vs SDS log2 ratios) (log2 ratio difference); higher = more soluble in mitosis.
Data set [2] deals with HeLa Kyoto. As to the kind of experiment: solubility in G1/S (NP-40 vs SDS abundance) (log2 ratio); higher = more soluble. The note with it: cell cycle stage: G1/S.
Data set [3] relates to HeLa Kyoto. Put plainly: thermal stability score vs G1/S (z-score of summed log2 fold changes over temperatures); higher = more thermally stable than in G1/S.
Data set [4] concerns HeLa Kyoto. Put plainly: melting temperature (median over replicates), in situ; higher = more thermally stable.
[5] abbreviates: cell cycle stage: early G1 (4.5 h after nocodazole release).
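Wherever melting temperature (median over replicates), in situ is given: HeLa Kyoto cells synchronized by double thymidine or nocodazole block, proteins quantified by TMT10plex mass spectrometry, three independent biological replicates.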
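Wherever solubility change mitosis vs G1/S (difference of NP-40 vs SDS log2 ratios) is given: synchronized HeLa Kyoto cells (double thymidine block for G1/S, nocodazole release for mitosis), protein amounts in NP-40 versus SDS lysates quantified by mass spectrometry, three biological replicates.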
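Wherever solubility in G1/S (NP-40 vs SDS abundance) is given: HeLa Kyoto cells arrested at G1/S by double thymidine block, proteins quantified by TMT10plex mass spectrometry in mild NP-40 versus SDS extracts, three biological replicates.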
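Wherever thermal stability score vs G1/S (z-score of summed log2 fold changes over temperatures) is given: synchronized HeLa Kyoto cells, proteins quantified by TMT10plex mass spectrometry, three biological replicates, mitosis taken 0.5 h after nocodazole release, G1/S directly after double thymidine block.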

Take RHOT2: in the data set with HeLa Kyoto [1], the “solubility change mitosis (log2)” value is -0.0417. Besides, in the data set on HeLa Kyoto [2], the “solubility in G1/S (log2)” value was -0.00866. Also, the thermal stability score is -0.0452 in the data set on HeLa Kyoto [3] (setting [5]) and -0.352 with HeLa Kyoto [3] (cell cycle stage: mitosis). For the same substance, the melting temperature in the data set with HeLa Kyoto [4] (cell cycle stage: G1/S) was 50.7 °C; in the data set with HeLa Kyoto [4] (cell cycle stage: mitosis) it was 50.5 °C.

As for “MAALGEPVRLERDICRAIELLEKLQRSGEVPPQKLQALQRVLQSEFCNAVREVYEHVYETVDISSSPEVRANATAKATVAAFAASEGHSHPRVVELPKTEEGLGFNIMGGKEQNSPIYISRIIPGGIADRHGGLKRGDQLLSVNGVSVEGEHHEKAVELLKAAQGKVKLVVRYTPKVLEEMESRFEKMRSAKRRQQT [LIN7C]”, in the data set on HeLa Kyoto [1], the “solubility change mitosis (log2)” value turned out to be 0.202. The “solubility in G1/S (log2)” value in the data set with HeLa Kyoto [2] is 0.382. The thermal stability score in the data set on HeLa Kyoto [3] (setting [5]) was -0.659; in the data set with HeLa Kyoto [3] (cell cycle stage: mitosis) it was -0.713. The figures for the melting temperature in the data set with HeLa Kyoto [4] (cell cycle stage: G1/S) and in the data set on HeLa Kyoto [4] (cell cycle stage: mitosis) were 50.1 °C and 51.5 °C, respectively.

For “MEAARPPPTAGKFVVVGGGIAGVTCAEQLATHFPSEDILLVTASPVIKAVTNFKQISKILEEFDVEEQSSTMLGKRFPNIKVIESGVKQLKSEEHCIVTEDGNQHVYKKLCLCAGAKPKLICEGNPYVLGIRDTDSAQEFQKQLTKAKRIMIIGNGGIALELVYEIEGCEVIWAIKDKAIGNTFFDAGAAEFLTSKLIAEKSEAKIAHKRTRYTTEGRKKEARSKSKADNVGSALGPDWHEGLNLKGTKEFSHKIHLETMCEVKKIYLQDEFRILKKKSFTFPRDHKSVTADTEMWPVYVELTNEKIYGCDFIVSATGVTPNVEPFLHGNSFDLGEDGGLKVDDHMHTSLPDIYAAGDICTTSWQLSPVWQQMRLWTQARQMGWYAAKCMAAASSGDSIDMDFSFELFAHVTKFFNYKVVLLGKYNAQGLGSDHELMLRCTKGREYIKVVMQNGRMMGAVLIGETDLEETFENLILNQMNLSSYGEDLLDPNIDIEDYFD [PYROXD1]”, the “solubility change mitosis (log2)” value with HeLa Kyoto [1] is -0.158. The “solubility in G1/S (log2)” value in the data set on HeLa Kyoto [2] is -0.102. In addition, the thermal stability score in the data set on HeLa Kyoto [3] (setting [5]) is -0.128; with HeLa Kyoto [3] (cell cycle stage: mitosis), -0.037. The melting temperature with HeLa Kyoto [4] (cell cycle stage: G1/S) was found to be 49.6 °C; in the data set with HeLa Kyoto [4] (cell cycle stage: mitosis), 49.9 °C.

In the case of “MRRMWATQGLAVALALSVLPGSRALRPGDCEVCISYLGRFYQDLKDRDVTFSPATIENELIKFCREARGKENRLCYYIGATDDAATKIINEVSKPLAHHIPVEKICEKLKKKDSQICELKYDKQIDLSTVDLKKLRVKELKKILDDWGETCKGCAEKSDYIRKINELMPKYAPKAASARTDL [MANF]”, in the data set on HeLa Kyoto [1], the “solubility change mitosis (log2)” value came to 0.0195. Also, in the data set with HeLa Kyoto [2], the “solubility in G1/S (log2)” value was 0.682. Also, the thermal stability score was -0.366 in the data set with HeLa Kyoto [3] (setting [5]) and -3.76 in the data set on HeLa Kyoto [3] (cell cycle stage: mitosis). In addition, the melting temperature with HeLa Kyoto [4] (cell cycle stage: G1/S) turned out to be 54.1 °C; in the data set with HeLa Kyoto [4] (cell cycle stage: mitosis) it was 52.7 °C.

As to “MVGRNSAIAAGVCGALFIGYCIYFDRKRRSDPNFKNRLRERRKKQKLAKERAGLSKLPDLKDAEAVQKFFLEEIQLGEELLAQGEYEKGVDHLTNAIAVCGQPQQLLQVLQQTLPPPVFQMLLTKLPTISQRIVSAQSLAEDDVE [TOMM20]”, the “solubility change mitosis (log2)” value in the data set on HeLa Kyoto [1] is 0.294. Further, in the data set with HeLa Kyoto [2], the “solubility in G1/S (log2)” value was 0.747. Besides, the thermal stability score in the data set on HeLa Kyoto [3] (setting [5]) is -2.96; in the data set on HeLa Kyoto [3] (cell cycle stage: mitosis) it was -4.96. In addition, the melting temperature was found to be 49.7 °C in the data set on HeLa Kyoto [4] (cell cycle stage: G1/S) and 51.7 °C with HeLa Kyoto [4] (cell cycle stage: mitosis).

Consider “MVLSELAARLNCAEYKNWVKAGHCLLLLRSCLQGFVGREVLSFHRGLLAAAPGLGPRAVCRGGSRCSPRARQFQPQCQVCAEWKREILRHHVNRNGDVHWGNCRPGRWPVDAWEVAKAFMPRGLADKQGPEECDAVALLSLINSCDHFVVDRKKVTEVIKCRNEIMHSSEMKVSSTWLRDFQMKIQNFLNEFKNIPEIVAVYSRIEQLLTSDWAVHIPEEDQRDGCECEMGTYLSESQVNEIEMQLLKEKLQEIYLQAEEQEVLPEELSNRLEVVKEFLRNNEDLRNGLTEDMQKLDSLCLHQKLDSQEPGRQTPDRKA [CXORF38]”, for which, in the data set on HeLa Kyoto [1], the “solubility change mitosis (log2)” value is -0.0263. In the data set on HeLa Kyoto [2], the “solubility in G1/S (log2)” value stood at 0.0857. Also, the results for the thermal stability score in the data set with HeLa Kyoto [3] (setting [5]) and with HeLa Kyoto [3] (cell cycle stage: mitosis) were -0.304 and 2.18, respectively. Further, the melting temperature in the data set on HeLa Kyoto [4] (cell cycle stage: G1/S) was 52.5 °C; in the data set on HeLa Kyoto [4] (cell cycle stage: mitosis), 52.1 °C.

Regarding “MDLLPPKPKYNPLRNESLSSLEEGASGSTPPEELPSPSASSLGPILPPLPGDDSPTTLCSFFPRMSNLRLANPAGGRPGSKGEPGRAADDGEGIVGAAMPDSGPLPLLQDMNKLSGGGGRRTRVEGGQLGGEEWTRHGSFVNKPTRGWLHPNDKVMGPGVSYLVRYMGCVEVLQSMRALDFNTRTQVTREAISLVCEAVPGAKGATRRRKPCSRPLSSILGRSNLKFAGMPITLTVSTSSLNLMAADCKQIIANHHMQSISFASGGDPDTAEYVAYVAKDPVNQRACHILECPEGLAQDVISTIGQAFELRFKQYLRNPPKLVTPHDRMAGFDGSAWDEEEEEPPDHQYYNDFPGKEPPLGGVVDMRLREGAAPGAARPTAPNAQTPSHLGATLPVGQPVGGDPEVRKQMPPPPPCPGRELFDDPSYVNVQNLDKARQAVGGAGPPNPAINGSAPRDLFDMKPFEDALRVPPPPQSVSMAEQLRGEPWFHGKLSRREAEALLQLNGDFLVRESTTTPGQYVLTGLQSGQPKHLLLVDPEGVVRTKDHRFESVSHLISYHMDNHLPIISAGSELCLQQPVERKL [SHC1]”, the “solubility change mitosis (log2)” value in the data set on HeLa Kyoto [1] is -0.067. Moreover, in the data set on HeLa Kyoto [2], the “solubility in G1/S (log2)” value was 0.307. For the same substance, the thermal stability score is -1.86 in the data set with HeLa Kyoto [3] (setting [5]) and -2.06 in the data set on HeLa Kyoto [3] (cell cycle stage: mitosis). The results for the melting temperature in the data set with HeLa Kyoto [4] (cell cycle stage: G1/S) and with HeLa Kyoto [4] (cell cycle stage: mitosis) were 52.5 °C and 52.9 °C, respectively.

“MWSEGRYEYERIPRERAPPRSHPSDGYNRLVNIVPKKPPLLDRPGEGSYNRYYSHVDYRDYDEGRSFSHDRRSGPPHRGDESGYRWTRDDHSASRQPEYRDMRDGFRRKSFYSSHYARERSPYKRDNTFFRESPVGRKDSPHSRSGSSVSSRSYSPERSKSYSFHQSQHRKSVRPGASYKRQNEGNPERDKERPVQSLKTSRDTSPSSGSAVSSSKVLDKPSRLTEKELAEAASKWAAEKLEKSDESNLPEISEYEAGSTAPLFTDQPEEPESNTTHGIELFEDSQLTTRSKAIASKTKEIEQVYRQDCETFGMVVKMLIEKDPSLEKSIQFALRQNLHEIESAGQTWQQVPPVRNTEMDHDGTPENEGEETAQSAPQPPQAPQPLQPRKKRVRRTTQLRRTTGAPDITWGMLKKTTQEAERILLRTQTPFTPENLFLAMLSVVHCNSRKDVKPENKQ [PPHLN1]”: in the data set on HeLa Kyoto [1], the “solubility change mitosis (log2)” value is 0.849. Moreover, the “solubility in G1/S (log2)” value with HeLa Kyoto [2] is -0.763. The thermal stability score in the data set with HeLa Kyoto [3] (setting [5]) came out at 0.616; in the data set with HeLa Kyoto [3] (cell cycle stage: mitosis) it was 1.63. The melting temperature in the data set with HeLa Kyoto [4] (cell cycle stage: G1/S) amounted to 52.2 °C; in the data set on HeLa Kyoto [4] (cell cycle stage: mitosis) it was 50.4 °C.
